Data published in publication PMC12226364.

Biological target: GST-EPAC1 (purified recombinant)

RanBP2 zinc finger domain (ZFD), 1171-1809 aa (from UniProt P49792 1171-1809) (domain or fragment)
shift of the AC50 of cAMP for EPAC1 GEF activity by RanBP2 ZFD (cAMP titration); maximal GEF activity also reduced: 10 fold
